From the supplement of paper PMC7125110
± gives the standard error. For part of these data: Fewer inactive variants are shown than the library holds.

B1: glmS ribozyme (parent)
chain: AUAAAAGCGCCAGAACUACAGAAAUGUAGUUGACGAGGAGGAGGUUUAUCGAAUUUUCGGCGGAUGCCUCCAAA

Columns and labels:
Settings in all cases: with glucosamine-6-phosphate
glucosamine-6-phosphate [1] = variants of: B1; test: kcat; higher = faster cleavage; RNA array
Method in brief: (§1)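 The measurements used barcoded ribozyme variants on sequenced MiSeq chips, transcribed in situ by E. coli RNA polymerase and tracked at 37 °C with a hybridised Cy3 probe. Glucosamine-6-phosphate, 40 μM to 10 mM in HEPES/KCl/Mg(OAc)2 buffer, was flowed in while tiles were imaged over ~14 h. Baseline-normalised signals, also normalised to non-cleaving reference variants, gave per-tile medians that were fit to one- or two-exponential decays for kobs. kcat and KM resulted from weighted Michaelis–Menten fits across concentrations.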

glucosamine-6-phosphate [2] = variants of: B1; test: KM; higher = weaker cofactor use; RNA array
Method in brief: as §1

glucosamine-6-phosphate [3] = variants of: B1; test: self-cleavage kobs at 10000 uM GlcN6P; higher = faster cleavage; RNA array
Method in brief: as §1

glucosamine-6-phosphate [4] = variants of: B1; test: self-cleavage kobs at 640 uM GlcN6P; higher = faster cleavage; RNA array
Method in brief: as §1

glucosamine-6-phosphate [5] = variants of: B1; test: self-cleavage kobs at 2500 uM GlcN6P; higher = faster cleavage; RNA array
Method in brief: as §1

glucosamine-6-phosphate [6] = variants of: B1; test: self-cleavage kobs at 40 uM GlcN6P; higher = faster cleavage; RNA array
Method in brief: as §1

glucosamine-6-phosphate [7] = variants of: B1; test: self-cleavage kobs at 160 uM GlcN6P; higher = faster cleavage; RNA array
Method in brief: as §1

| Variant | kcat (glucosamine-6-phosphate [1]) | KM (glucosamine-6-phosphate [2]) | self-cleavage kobs at 10000 uM GlcN6P (glucosamine-6-phosphate [3]) | self-cleavage kobs at 640 uM GlcN6P (glucosamine-6-phosphate [4]) | self-cleavage kobs at 2500 uM GlcN6P (glucosamine-6-phosphate [5]) | self-cleavage kobs at 40 uM GlcN6P (glucosamine-6-phosphate [6]) | self-cleavage kobs at 160 uM GlcN6P (glucosamine-6-phosphate [7]) |
| --- | --- | --- | --- | --- | --- | --- | --- |
| AUAAAAGCGCCAGAACUACAGAAAUGUAGUUUACGAGGAGGAGGUUUAUCGAAUUUCCGGCGGAUGCCUCCAAA | 4.06e-05 ± 2.6e-06 s⁻¹ | 2.42 ± 0.55 mM | 3.26e-05 ± 8.4e-06 s⁻¹ | – | – | – | – |
| AUAAAAGCGCCAGAACUACAGAAAUGUAGUUUACGAGGAGUAGGUUUAUCGAAUUUUCGGCGGAUGCCUCCAAA | 0.000152 ± 3.7e-06 s⁻¹ | 1.64 ± 0.17 mM | 0.00013 ± 1e-05 s⁻¹ | 4.19e-05 ± 1.5e-05 s⁻¹ | 9.36e-05 ± 1.9e-05 s⁻¹ | – | – |
| AUAAAAGCGCCAGAACUACAGAAAUGUAGUUUACGAGGAGGAGGUUUAUCGAAUUUUCGGCGGAUUCCUCCAAA | 9.79e-05 ± 9.9e-06 s⁻¹ | 7.29 ± 1.7 mM | 5.66e-05 ± 1.4e-05 s⁻¹ | – | – | – | – |
| AUAAAAGCGCCAGAACUACAGAAAUGUAGUUUACGAGGAGGAGGUUUAUCGAAUUUUCGGCGGAUCCCUCCAAA | 5.37e-05 ± 2.7e-06 s⁻¹ | 7.24 ± 0.85 mM | 3.11e-05 ± 1.2e-05 s⁻¹ | – | – | < 1e-05 s⁻¹ | – |
| AUAAAAGCGCCAGAACUACAGAAAUGUAGUUUACGAGGAGGAGGUUUAUCGAAUUUUCGGCGGAUACCUCCAAA | 0.000468 ± 5.1e-05 s⁻¹ | 3.02 ± 0.56 mM | 0.000358 ± 4.3e-05 s⁻¹ | 8.47e-05 ± 1e-05 s⁻¹ | 0.00021 ± 2.9e-05 s⁻¹ | – | – |
| AUAAAAGCGCCAGAACUACAGAAAUGUAGUUUACGAGGAGGAGGUGUAUCGAAUUUUCGGCGGAUGCCUCCAAA | 0.000316 ± 0.00012 s⁻¹ | – | 0.000169 ± 2e-05 s⁻¹ | 4.52e-05 ± 1.5e-05 s⁻¹ | 6.3e-05 ± 1.1e-05 s⁻¹ | – | – |
| AUAAAAGCGCCAGAACUACAGAAAUGUAGUUUACGAGGAGGAGGUAUAUCGAAUUUUCGGCGGAUGCCUCCAAA | 0.000102 ± 7.4e-06 s⁻¹ | 4.1 ± 0.67 mM | 7.21e-05 ± 1.5e-05 s⁻¹ | – | 3.94e-05 ± 1.1e-05 s⁻¹ | – | – |
| AUAAAAGCGCCAGAACUACAGAAAUGUAGUUUACGAGGAGGAGGUUUAUCGAAUGUUCGGCGGAUGCCUCCAAA | 0.000798 ± 0.0002 s⁻¹ | 3.11 ± 1.4 mM | 0.000652 ± 9e-05 s⁻¹ | 0.000151 ± 2.5e-05 s⁻¹ | 0.000274 ± 6.5e-05 s⁻¹ | – | – |
| AUAAAAGCGCCAGAACUACAGAAAUGUAGUUUACGAGGAGGAGGUUUAUCGAAUUUUCGGCGGAUGCCUCAAAA | 0.000322 ± 6.6e-05 s⁻¹ | 4.08 ± 1.9 mM | 0.000222 ± 2.3e-05 s⁻¹ | 3.16e-05 ± 1.1e-05 s⁻¹ | 0.000161 ± 2.6e-05 s⁻¹ | – | – |
| AUAAAAGCGCCAGAACUACAGAAAUGUAGUUUACGAGGAGGAGGUUUAUCGAAUUGUCGGCGGAUGCCUCCAAA | 0.00104 ± 0.00031 s⁻¹ | 6.41 ± 2.8 mM | 0.000633 ± 6.8e-05 s⁻¹ | 8.33e-05 ± 1.2e-05 s⁻¹ | 0.000317 ± 5e-05 s⁻¹ | – | 5.05e-05 ± 1.1e-05 s⁻¹ |
| AUAAAAGCGCCAGAACUACAGAAAUGUAGUUUACGAGGAGGAGGUUUAUCGAAUUUUCGGCGGAAGCCUCCAAA | 0.000104 ± 1.3e-05 s⁻¹ | 5.75 ± 1.6 mM | 6.61e-05 ± 1.3e-05 s⁻¹ | – | – | – | < 1e-05 s⁻¹ |
| AUAAAAGCGCCAGAACUACAGAAAUGUAGUUUACGAGGAGGAGGUUUAUCGAAUUUUCGGCGGAUGCCACCAAA | 9.32e-05 ± 6.2e-06 s⁻¹ | 0.142 ± 0.064 mM | 8.84e-05 ± 1.1e-05 s⁻¹ | 8.92e-05 ± 1.9e-05 s⁻¹ | 9.1e-05 ± 1.4e-05 s⁻¹ | – | – |
| AUAAAAGCGCCAGAACUACAGAAAUGUAGUUUACGAGGAGGAGGUUUAUCAAAUUUUCGGCGGAUGCCUCCAAA | < 1e-05 s⁻¹ | – | – | – | – | < 1e-05 s⁻¹ | – |
| AUAAAAGCGCCAGAACUACAGAAAUGUAGUUUACGAGGAGGAGGUUUAUCGAAAUUUCGGCGGAUGCCUCCAAA | 0.00121 ± 4.3e-05 s⁻¹ | 6.51 ± 0.32 mM | 0.000726 ± 0.0001 s⁻¹ | 0.000107 ± 1.4e-05 s⁻¹ | 0.000344 ± 4.3e-05 s⁻¹ | – | – |
| AUAAAAGCGCCAGAACUACAGAAAUGUAGUUUACGAGGAGGAGGUUUAUCGAAUUUUCGGCGGAUGCCUUCAAA | 0.00165 ± 0.00025 s⁻¹ | 5.27 ± 1.3 mM | 0.00111 ± 8.8e-05 s⁻¹ | 0.000182 ± 2.4e-05 s⁻¹ | 0.000464 ± 6.3e-05 s⁻¹ | – | 7.01e-05 ± 1.6e-05 s⁻¹ |
| AUAAAAGCGCCAGAACUACAGAAAUGUAGUUUACGAGGAGGAGGUUGAUCGAAUUUUCGGCGGAUGCCUCCAAA | 0.000502 ± 8.1e-05 s⁻¹ | 4.7 ± 1.4 mM | 0.000336 ± 4.6e-05 s⁻¹ | 5.12e-05 ± 1.7e-05 s⁻¹ | 0.000189 ± 3.3e-05 s⁻¹ | – | – |
| AUAAAAGCGCCAGAACUACAGAAAUGUAGUUUACGAGGAGGAGGUUCAUCGAAUUUUCGGCGGAUGCCUCCAAA | 0.000177 ± 4.1e-05 s⁻¹ | 7.84 ± 3.4 mM | 9.94e-05 ± 1.4e-05 s⁻¹ | – | 4.27e-05 ± 1.2e-05 s⁻¹ | – | – |
